This is an account of results in article PMC8242953, “Immune Tolerance-Adjusted Personalized Immunogenicity Prediction for Pompe Disease” (Frontiers in Immunology, 2021).

For data set [1] the following is noted: CRIM-positive IOPD children on ERT; ref [5]; cited from earlier work. The text has this: The development of ADA to rhGAA is influenced by the presence or absence of endogenous GAA, defined as cross-reactive immunologic material (CRIM). Individuals who are CRIM-negative have a complete absence of GAA and are at the highest risk of ADA, whereas those who are CRIM-positive may be more immune tolerant to ERT, due to prior exposure to endogenous GAA ([4]). However, one-third of CRIM-positive IOPD children still develop high and sustained or intermediate ADA titers, putting them at risk for clinical decline similar to CRIM-negative individuals ([5]). All CRIM-negative patients develop H ...

The nature of data set [2]: Anti-rhGAA IgG antibody (ADA) titers in IOPD subjects on ERT. Type of data set: in vivo, human. As to the method:
Children with a confirmed diagnosis of IOPD were enrolled in Duke University Medical Centers. IOPD was defined as the presence of hypertrophic cardiomyopathy in the first year of life. […] Clinical data including CRIM status, GAA variants, GAA enzyme activity, age at ERT initiation, and longitudinal anti-rhGAA IgG antibody titers were extracted from medical records ( Supplementary Table S1 ).
ADA titers were determined by Sanofi Genzyme using enzyme-linked immunosorbent assays (ELISA) and confirmed using radioimmunoprecipitation as described previously ([6]). Subjects whose ADA titers repeatedly exceed 51,200 after more than 6-months on rhGAA were classified as high and sustained antibody titers (HSAT) ([5], [11]). Subjects whose ADA titers fell between 12,800 and 51,200 within the first year of ERT were classified as sustained intermediate titers (SIT). Based on ADA titers, subjects were stratified into two groups; 1) High ADA, subjects who developed ADA titers in HSAT or SIT range (≥12,800) and 2) Low ADA, subjects who maintained ADA titers of ≤6,400.

In the case of alglucosidase alfa [rhGAA], in data set [1], the “share of CRIM-positive IOPD children who develop high and sustained or intermediate ADA titers” value is “one-third”. Moreover, the “subjects who developed high ADA titers” value in data set [2] (19 of 48 CRIM-positive IOPD subjects on rhGAA ERT without ITI, high ADA = HSAT or SIT, titers ≥12,800) turned out to be 40%. For the same substance, the “subjects who developed low ADA titers” value in data set [2] (29 of 48 CRIM-positive IOPD subjects on rhGAA ERT without ITI, low ADA = titers ≤6,400) amounted to 60%.
